# Measured values taken from publication PMC3298750 (Nature immunology, 2011).
# Non-standard residues stand in square brackets, D forms with d. No end group written: not given here. pS = N[C@@H](COP(=O)(O)O)C(=O)O
# Biological target: 15N-WW domain of Pin1 (tag removed) (UniProt Q13526 5-39, 15N-labelled)
# Test: NMR titration
# Chain of 15N-WW domain of Pin1 (tag removed) (Q13526 5-39): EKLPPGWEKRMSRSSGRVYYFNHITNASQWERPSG
row,Kd [µM],Binder
1,220 ± 15,EAEAW[pS]PRKLP [IRAK1 phosphopeptide 126-136 (pSer131-P132)]
2,120 ± 12,STFL[pS]PAFPGS [IRAK1 phosphopeptide 140-150 (pSer144-P145)]
3,260 ± 75,ELGLVPSPASLWPPPP[pS]PAPSSTK [IRAK1 phosphopeptide 157-180 (pSer173-P174)]
